Results as given in patent US20250296971A1, “GASTRIC INHIBITORY PEPTIDE RECEPTOR LIGANDS” (priority 2021, published 2025).
*1 amine or outer side, *2 acyl side, *3 side chain or, on linkers, in order; H or OH if unused. Bridges are numbered along the chain shown (N, C = ends). Primed or numbered codes have the meaning given here. Where no end group is shown, it is not given here. [ ]: non-standard residue; d: D form. The star is where a group is joined. (dE)(AGLU) = D-glutamic acid bearing 1-amino-1-deoxy-D-glucitol; 2,6‑lutidylidene = 2Lut, Cys-Cys crosslink via 2,6-lutidylidene; dE(AGLU) = D-glutamic acid bearing 1-amino-1-deoxy-D-glucitol; Pro(trans-4-NH2) = O=C([C@@H]1C[C@@H](N[*:3])CN1[*:1])[*:2]; DOTA = O=C(O)CN1CCN(CC(=O)O)CCN(CC(=O)*)CCN(CC(=O)O)CC1; 2Lut = 2,6-lutidylidene bridge between two thiols; Trp(5-Cl) = N[C@@H](Cc1c[nH]c2ccc(Cl)cc12)C(=O)O; Pyridine(2,6-diCH2) = c1cc(C[*:1])nc(C[*:2])c1; 2Lut″ = 2,6-lutidylidene linking two thiols; APAc = 4-amino-1-carboxymethylpiperidine; Glutaryl = O=C(CCCC(=O)[*:2])[*:1]; PEG6 = NCCOCCOCCOCCOCCOCCOCCC(=O)O; AGLU = 1-amino-1-deoxy-D-glucitol; Hyp = O=C(O)[C@@H]1C[C@@H](O)CN1; pS = N[C@@H](COP(=O)(O)O)C(=O)O; dGlu(AGLU) = not defined here; Aic = NC1(C(=O)O)Cc2ccccc2C1; hCys = N[C@@H](CCS)C(=O)O; Ac5c = NC1(C(=O)O)CCCC1; Api = NC1(C(=O)O)CCNCC1; Thp = NC1(C(=O)O)CCOCC1; AEEA = NCCOCCOCC(=O)O

B1: DOTA-O2Oc-glu(AGLU)-Asp-Trp-5Clw-Tap-Glu-leu-[Cys(2Lut)-Thp-Leu-Ile-Cys]-APAc-glu(AGLU)-NH2 (peptide)
peptide: DW[Trp(5-Cl)][Pro(trans-4-NH2)]E[dL]C[Thp]LIC-{APAc-(dE)(AGLU)-NH2}
modifications: linker 7-11 via Pyridine(2,6-diCH2); not fully specified (N-terminus); printed as DOTA-O2Oc-glu(AGLU)-Asp-Trp-5Clw-Tap-Glu-leu-[Cys(2Lut)-Thp-Leu-Ile-Cys]-APAc-glu(AGLU)-NH2
B2: HO-Succinyl-Trp-5Clw-Tap-Glu-leu-[Cys(2Lut)-Apc(DOTA)-Leu-Ile-Cys]-APAc-glu(AGLU)-NH2 (peptide)
peptide: W[Trp(5-Cl)][Pro(trans-4-NH2)]E[dL]C[Api](DOTA)LIC-{APAc-dE(AGLU)-NH2}
modifications: linker 6-10 via 2Lut; not fully specified (N-terminus)
B3: DOTA-glu(AGLU)-O2Oc-Asp-Trp-5Clw-Tap-Glu-leu-[Cys(2Lut)-Thp-Leu-Ile-Cys]-APAc-glu(AGLU)-NH2 (peptide)
peptide: {DOTA-dGlu(AGLU)-AEEA}-DW[Trp(5-Cl)][Pro(trans-4-NH2)]E[dL]C[Thp]LIC-{APAc-dGlu(AGLU)-NH2}
modifications: linker 7-11 via 2Lut; reading uncertain
B4: DOTA-glu(AGLU)-PEG6-Asp-Trp-5Clw-Tap-Glu-leu-[Cys(2Lut)-Thp-Leu-Ile-Cys]-APAc-glu(AGLU)-NH2 (peptide)
peptide: {DOTA-dGlu(AGLU)-PEG6}-DW[Trp(5-Cl)][Pro(trans-4-NH2)]E[dL]C[Thp]LIC-{APAc-dGlu(AGLU)-NH2}
modifications: linker 7-11 via 2Lut; reading uncertain
B5: Ac-Asp-Trp-5Clw-Hyp-Asn-leu-[Cys(2Lut)-Thp-Leu-Ile-Cys]-NH2 (peptide)
peptide: Ac-DW[Trp(5-Cl)][Hyp]N[dL]C[Thp]LIC-NH2
modifications: linker 7-11 via Pyridine(2,6-diCH2)
B6: AGLU-Glutar-Asp-Trp-5Clw-Tap-Glu-leu-[Cys(2Lut)-Lys(DOTA)-Leu-Ile-Cys]-APAc-glu(AGLU)-NH2 (peptide)
peptide: {AGLU-Glutaryl}-DW[Trp(5-Cl)][Pro(trans-4-NH2)]E[dL]CK(DOTA)LIC-{APAc-dE(AGLU)-NH2}
modifications: linker 7-11 via 2,6‑lutidylidene
B7: Ac-Asp-Trp-5Clw-Hyp-Glu-leu-[Cys(2Lut)-Thp-Leu-Ile-Hcy]-NH2 (peptide)
peptide: Ac-DW[Trp(5-Cl)][Hyp]E[dL]C[Thp]LI[hCys]-NH2
modifications: linker 7-11 via Pyridine(2,6-diCH2)
B8: Ac-Asp-Trp-5Clw-Hyp-Glu-leu-[Cys(2Lut)-Aic-Leu-Ile-Cys]-NH2 (peptide)
peptide: Ac-DW[Trp(5-Cl)][Hyp]E[dL]C[Aic]LIC-NH2
modifications: linker 7-11 via Pyridine(2,6-diCH2)
B9: Ac-Asp-Trp-5Clw-Hyp-Glu-leu-[Cys(2Lut)-Eca-Leu-Ile-Cys]-NH2 (peptide)
peptide: Ac-DW[Trp(5-Cl)][Hyp]E[dL]C[Ac5c]LIC-NH2
modifications: linker 7-11 via Pyridine(2,6-diCH2)
B10: Ac-Gln-Trp-5Clw-Hyp-Glu-leu-[Cys(2Lut)-Thp-Leu-Ile-Cys]-NH2 (peptide)
peptide: Ac-QW[Trp(5-Cl)][Hyp]E[dL]C[Thp]LIC-NH2
modifications: linker 7-11 via 2Lut″
B11: Ac-Pse-Trp-5Clw-Hyp-Glu-leu-[Cys(2Lut)-Thp-Leu-Ile-Cys]-NH2 (peptide)
peptide: Ac-[pS]W[Trp(5-Cl)][Hyp]E[dL]C[Thp]LIC-NH2
modifications: linker 7-11 via Pyridine(2,6-diCH2)
SMILES: CC[C@H](C)[C@@H]1NC(=O)[C@H](CC(C)C)NC(=O)C2(CCOCC2)NC(=O)[C@@H](NC(=O)[C@@H](CC(C)C)NC(=O)[C@H](CCC(=O)O)NC(=O)[C@@H]2C[C@@H](O)CN2C(=O)[C@H](Cc2c[nH]c3ccc(Cl)cc23)NC(=O)[C@H](Cc2c[nH]c3ccccc23)NC(=O)[C@H](COP(=O)(O)O)NC(C)=O)CSCc2cccc(n2)CSC[C@@H](C(N)=O)NC1=O
B12: Ac-Asp-Trp-5Clw-Hyp-Glu-leu-[Hcy(2Lut)-Thp-Leu-Ile-Hcy]-NH2 (peptide)
peptide: Ac-DW[Trp(5-Cl)][Hyp]E[dL][hCys][Thp]LI[hCys]-NH2
modifications: linker 7-11 via Pyridine(2,6-diCH2)

Molecular target: human Gastric Inhibitory Peptide Receptor (human) (UniProt P48546)
Sequence (P48546 22-466 limits assumed): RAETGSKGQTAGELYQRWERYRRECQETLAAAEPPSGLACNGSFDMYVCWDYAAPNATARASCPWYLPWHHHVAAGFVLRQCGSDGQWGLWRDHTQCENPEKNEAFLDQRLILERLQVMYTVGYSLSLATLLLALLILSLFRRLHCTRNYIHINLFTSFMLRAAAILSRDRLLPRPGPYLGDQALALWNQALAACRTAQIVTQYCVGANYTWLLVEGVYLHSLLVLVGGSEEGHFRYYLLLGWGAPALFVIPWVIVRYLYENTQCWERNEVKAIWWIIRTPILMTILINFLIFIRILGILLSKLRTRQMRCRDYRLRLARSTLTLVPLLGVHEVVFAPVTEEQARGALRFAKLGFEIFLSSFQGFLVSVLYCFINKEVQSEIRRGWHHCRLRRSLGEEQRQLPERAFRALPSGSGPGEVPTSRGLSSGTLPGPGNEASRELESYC
Experiment: FACS competition with GIP-057 on CHO-K1-hGIPR cells; pIC50 category A: >8.0

pIC50, > 8 pic50:
B1, B2, B3, B4, B5, B6, B7, B8, B9, B10, B11, B12
